Data on one molecule can be found in US20120134993A1 (ZymoGenetics, published 2012).

In this test the target is T1, human FGFR4-Fc (R&D Systems) (human, UniProt P22455 22-369).
T1 construct: Bought; also called FGFR4 (R&D systems); R&D FGFR4; not shown: Fc of the commercial fusion; not described
Nature of the test: ELISA: FGF-8b coated at 100 nM, FGFR-Fc 100 to 0.10 nM in 1:2 steps with 10 ug/ml heparin, anti-human Fc-HRP, OD 490 nm. The method, then:
To determine the binding capability of FGFR-Fc to their respective ligands, an ELISA was run. Recombinant human FGF-8b or FGF-17 (R&D Systems) was plated at 100 nM on a Nunc Maxisorp 96-well plate for 1 h at room temperature with shaking. The plates were blocked with BLOTTO (Thermo Fisher Scientific, Rockford, Ill.) for 1 h at room temperature, then washed 5 times with ELISA C buffer (137 mM NaCl, 2.7 mM KCl, 7.2 mM Na₂HPO₄, 1.5 mM KH₂PO₄, 0.05% (v/w) polysorbate 20, pH 7.2). FGFR-Fcs were diluted to 100 nM with PBS/0.1×BLOTTO/10 ug/ml porcine heparin (Sigma, St. Louis, Mo.) and then 1:2 serial dilutions were made, ending at 0.10 nM. 100 μL of FGFR-Fcs were plated and incubated at 4° C. overnight. The following day, the plates were washed 5 times with ELISA C and then incubated with 2.5 μg/mL horseradish peroxidase-conjugated anti-human Fc antibody (Jackson ImmunoResearch Laboratories, West Grove, Pa.) for 1 h at room temperature with shaking. After 5 washes with ELISA C, 100 μL of OPD in citrate buffer (5 mg of o-phenylenediamine in 63 mM sodium citrate, 37 mM citric acid, pH 5.0, 0.03% H₂O₂) was added for detection. After 2-5 minutes, the reaction was stopped with 1 N H₂SO₄. The plates were read at 490 nm using SoftMaxPro software.

B1: recombinant human FGF-8b (ligand, UniProt P55075-3 23-215, looked up)
chain: QVTVQSSPNFTQHVREQSLVTDQLSRRLIRTYQLYSRTSGKHVQVLANKRINAMAEDGDPFAKLIVETDTFGSRVRVRGAETGLYICMNKKGKLIAKSNGKGKDCVFTEIVLENNYTALQNAKYEGWYMAFTRKGRPRKGSKTRQHQREVHFMKRLPRGHHTTEQSLRFEFLNYPPFTRSLRGSQRTWAPEPR
On to B1, for which the binding result is recorded as “binds”.
